Laboratory results: US20230212319A1, “NOVEL ANTIGEN BINDING DOMAINS AND SYNTHETIC ANTIGEN RECEPTORS INCORPORATING THE SAME” (University of Southern California, priority 2020, published 2023)

B1: 22008 (protein)
chain: MALPVTALLLPLALLLHAARPQLQLQESGPGLVKPSETLSLTCTVSGDSISSGDYYWGWIRQPPGKGLEWIGHIYYSGVTYYNPSLKSRVTISVDTSRNQFSLKLSSVTAADTAVYYCTREDSSNWRSRGQGTLVTVSSLEDLKNVFPPEVAVFEPSEAEISHTQKATLVCLATGFYPDHVELSWWVNGKEVHSGVCTDPQPLKEQPALNDSRYCLSSRLRVSATFWQNPRNHFRCQVQFYGLSENDEWTQDRAKPVTQIVSAEAWGRADCGFTSESYQQGVLSATILYEILLGKATLYAVLVSALVLMAMVKRKDSRGRAKRSGSGATNFSLLKQAGDVEENPGPTSMDWIWRILFLVGAATGAHSFEVQLLESGGGLVQPGGSLRLSCAASGFIFSSYAMSWVRQAPGKGQEWVSGVSGTGVNTYYADSVKGRFTISRDNSKNTLYLQMNSLRAEDTAVYYCASGKGWDSGSWYEDYRGQGTLVTVSSTRIQNPDPAVYQLRDSKSSDKSVCLFTDFDSQTNVSQSKDSDVYITDKCVLDMRSMDFKSNSAVAWSNKSDFACANAFNNSIIPEDTFFPSPESSCDVKLVEKSFETDTNLNFQNLSVIGFRILLLKVAGFNLLMTLRLWSSRAKRSGSGVKQTLNFDLLKLAGDVESNPGPSRGHMTEYKPTVRLATRDDVPRAVRTLAAAFADYPATRHTVDPDRHIERVTELQELFLTRVGLDIGKVWVADDGAAVAVWTTPESVEAGAVFAEIGPRMAELSGSRLAAQQQMEGLLAPHRPKEPAWFLATVGVSPDHQGKGLGSAVVLPGVEAAERAGVPAFLETSAPRNLPFYERLGFTVTADVEVPEGPRTWCMTRKPGA
B2: 22006 (protein)
chain: MALPVTALLLPLALLLHAARPLEGKPIPNPLLGLDSTGSGEDLKNVFPPEVAVFEPSKAEIAHTQKATLVCLATGFYPDHVELSWWVNGKEVHSGVCTDPQPLKEQPALNDSRYCLSSRLRVSATFWQNPRNHFRCQVQFYGLSENDEWTQDRAKPVTQIVSAEAWGRADCGITSASYHQGVLSATILYEILLGKATLYAVLVSALVLMAMVKRKDSRGRAKRSGSGATNFSLLKQAGDVEENPGPTSTMALPVTALLLPLALLLHAARPEVQLVESGGGLVQPGGSLRLSCTFSGGTFSSYTMGWFRQAPGKEREFVAEVRWGGVTTYSNSLKDRFSISEDSVKNAVYLQMNSLKPEDTAVYYCAAVRQMYMTVVPDYWGQGTLVTVSSTREQKLISEEDGSGIQNPDPAVYQLRDSKSSDKSVCLFTDFDSQTNVSQSKDSDVYITDKCVLDMRSMDFKSNSAVAWSNKSDFACANAFNNSIIPEDTFFPSSDVPCDVKLVEKSFETDTNLNFQNLSVIGFRILLLKVAGFNLLMTLRLWSSRAKRSGSGVKQTLNFDLLKLAGDVESNPGPSRGHMTEYKPTVRLATRDDVPRAVRTLAAAFADYPATRHTVDPDRHIERVTELQELFLTRVGLDIGKVWVADDGAAVAVWTTPESVEAGAVFAEIGPRMAELSGSRLAAQQQMEGLLAPHRPKEPAWFLATVGVSPDHQGKGLGSAVVLPGVEAAERAGVPAFLETSAPRNLPFYERLGFTVTADVEVPEGPRTWCMTRKPGA

Tested on: RAJI cells
Assay: JNG assay, co-culture with RAJI cells
Format: cell-based
Conditions: JNG cells expressing construct, co-culture with Raji
Description: Cellular supernatant is collected and assayed for the induction of cytokines (e.g., IL2).
JNG (Jurkat cells expressing EGFP under an NFAT promoter) were infected with lentiviral vectors encoding different single chain and multi-chain SARs by spinfection in the presence of 8 µg/ml of Polybrene® (Sigma, Catalog no. H9268). The Jurkat-NFAT-GFP cells are engineered in such a way that the IL-2 promoter, which carries NFAT binding sites, is cloned upstream of the GFP gene. These cells have been used to study signaling via TCR and CAR. The different SARs were stably expressed in Jurkat NFAT-GFP cells by lentiviral mediated gene transfer, followed by selection with puromycin or blasticidin. No drug selection was used in case the construct lacked an antibiotic resistance gene. The SAR-expressing Jurkat-NFAT-GFP cells were cocultured with the target cells at E:T ratio of approximately 1:2 for approximately 4 hours to 18 hours. When the interaction between SIRs and their target antigen results in activation of the NFAT pathway, GFP expression is induced. […] GFP expression was monitored by FACS analysis. The Jurkat-NFAT-GFP (parental) cells were used as control. The structure of different constructs can be determined based on their names. […] The sequence of the other constructs in the table can be similarly determined from their names and by referring to the different Tables of this disclosure that provide the names and SEQ ID NO of the different modules. Alternatively, the composition and modular architecture of the different SAR constructs can be determined from their sequences by bioinformatics tools, including using nucleic acid and amino acids homology searches. A SAR is considered positive in the assay in case the SAR expressing Jurkat-NFAT-GFP cells show greater % GFP positive cells when cultured with the target cell line as compared to parental Jurkat-NFAT-GFP cells. […] In general, the number +/-, +, 2+, 3+, 4+, 5+ refer to approximately 5%, 10%, 20%, 30%, 40% and 50% GFP positive cells. The % of GFP induction in the above assay is dependent not only the relative strength of the SAR but also, among other factors, on the relative level of expression of the SAR in the JNG cells and the relative level of expression of the target antigen in the target cell line. To control for the difference in gene transduction efficiency of the different SAR constructs, the experiment was conducted with JNG cells transduced with SAR constructs co-expressing a drug resistance gene (e.g., puromycin or PAC) followed by drug selection to generate a stable population of SAR-expressing cells. It is to be noted that the drug resistance gene (e.g., PAC) in the SAR constructs is optional and in vivo studies were conducted with SAR constructs lacking the PAC gene.

Molecule | NFAT-GFP ASSAY: Raji
B1 | +/- (refer to approximately 5%, 10%, 20%, 30%, 40% and 50% GFP positive cells)
B2 | + (refer to approximately 5%, 10%, 20%, 30%, 40% and 50% GFP positive cells)
